Test results as given in publication PMC10050235, “Structural basis of Ty1 integrase tethering to RNA polymerase III for targeted retrotransposon integration” (Nature Communications, 2023).

B2: Pol III subunit C53 (within purified Pol III) (natural protein, UniProt P25441 1-422, looked up)
chain: MSSNKGNGRLPSLKDSSSNGGGSAKPSLKFKPKAVARKSKEEREAAASKVKLEEESKRGNDKKHFNNKNKRVTGAGGQQRRMAKYLNNTHVISSGPLAAGNFVSEKGDLRRGFIKSEGSGSSLVQKGLETIDNGAESSENEAEDDDNEGVASKSKKKFNMGKEFEARNLIEDEDDGESEKSSDVDMDDEEWRSKRIEQLFPVRPVRVRHEDVETVKREIQEALSEKPTREPTPSVKTEPVGTGLQSYLEERERQVNEKLADLGLEKEFQSVDGKEAAAELELLNADHQHILRKLKKMNNKPERFMVFQLPTRLPAFERPAVKEEKEDMETQASDPSKKKKNIKKKDTKDALSTRELAGKVGSIRVHKSGKLSVKIGNVVMDIGKGAETTFLQDVIALSIADDASSAELLGRVDGKIVVTPQI
notes: RNA polymerase III subunit C53, S. cerevisiae; N-terminal low-complexity region C53-Nt is residues 1-274; Subunit of m2, written alone for the pairs that touch in the structures; source: endogenous, S. cerevisiae strain SC1613, purified as part of Pol III (IgG Sepharose, TEV elution, Mono-Q)

Columns and labels:
[1] = biological target: RNA polymerase III (Pol III), 17 subunits, isolated from yeast (S. cerevisiae (endogenous in strain SC1613)) (UniProt P04051); assay: native gel or EMSA; recombinant IN1 mixed with Pol III isolated from yeast, free of nucleic acids; native gel electrophoresis
[2] = biological target: B2; assay: cryo-EM structure; Pol III and IN1 both at 0.5 uM in 20 mM HEPES-NaOH pH 7.5, 170 mM NaCl, 2 mM DTT, 30 min at 4 °C; crosslinked with 0.06% glutaraldehyde; no nucleic acids (maps A-C); conditions: both partners purified
[3] = biological target: T1, Pol III subunit C37 (within purified Pol III) (S. cerevisiae (endogenous in strain …, UniProt P36121 1-282)); assay: as above; conditions: both partners purified
T1 construct: RNA polymerase III subunit C37, S. cerevisiae; Subunit of m2, written alone for the pairs that touch in the structures; source: endogenous, S. cerevisiae strain SC1613, purified as part of Pol III (IgG Sepharose, TEV elution, Mono-Q)
T1 sequence (looked up): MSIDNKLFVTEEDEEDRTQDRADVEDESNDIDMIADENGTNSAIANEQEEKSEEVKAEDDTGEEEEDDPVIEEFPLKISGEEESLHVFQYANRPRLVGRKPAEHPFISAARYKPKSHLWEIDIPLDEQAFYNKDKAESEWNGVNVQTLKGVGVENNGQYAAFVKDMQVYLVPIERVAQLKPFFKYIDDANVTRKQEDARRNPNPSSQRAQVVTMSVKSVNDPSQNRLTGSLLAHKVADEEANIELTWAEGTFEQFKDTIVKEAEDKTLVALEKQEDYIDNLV

[4] = biological target: T2, Pol III subunit C128 (within purified Pol III) (S. cerevisiae (endogenous in strain …, UniProt P22276 1-1149)); assay: as above; conditions: both partners purified
T2 construct: RNA polymerase III second largest subunit C128, S. cerevisiae; Subunit of m2, written alone for the pairs that touch in the structures; source: endogenous, S. cerevisiae strain SC1613, purified as part of Pol III (IgG Sepharose, TEV elution, Mono-Q)
T2 sequence (looked up): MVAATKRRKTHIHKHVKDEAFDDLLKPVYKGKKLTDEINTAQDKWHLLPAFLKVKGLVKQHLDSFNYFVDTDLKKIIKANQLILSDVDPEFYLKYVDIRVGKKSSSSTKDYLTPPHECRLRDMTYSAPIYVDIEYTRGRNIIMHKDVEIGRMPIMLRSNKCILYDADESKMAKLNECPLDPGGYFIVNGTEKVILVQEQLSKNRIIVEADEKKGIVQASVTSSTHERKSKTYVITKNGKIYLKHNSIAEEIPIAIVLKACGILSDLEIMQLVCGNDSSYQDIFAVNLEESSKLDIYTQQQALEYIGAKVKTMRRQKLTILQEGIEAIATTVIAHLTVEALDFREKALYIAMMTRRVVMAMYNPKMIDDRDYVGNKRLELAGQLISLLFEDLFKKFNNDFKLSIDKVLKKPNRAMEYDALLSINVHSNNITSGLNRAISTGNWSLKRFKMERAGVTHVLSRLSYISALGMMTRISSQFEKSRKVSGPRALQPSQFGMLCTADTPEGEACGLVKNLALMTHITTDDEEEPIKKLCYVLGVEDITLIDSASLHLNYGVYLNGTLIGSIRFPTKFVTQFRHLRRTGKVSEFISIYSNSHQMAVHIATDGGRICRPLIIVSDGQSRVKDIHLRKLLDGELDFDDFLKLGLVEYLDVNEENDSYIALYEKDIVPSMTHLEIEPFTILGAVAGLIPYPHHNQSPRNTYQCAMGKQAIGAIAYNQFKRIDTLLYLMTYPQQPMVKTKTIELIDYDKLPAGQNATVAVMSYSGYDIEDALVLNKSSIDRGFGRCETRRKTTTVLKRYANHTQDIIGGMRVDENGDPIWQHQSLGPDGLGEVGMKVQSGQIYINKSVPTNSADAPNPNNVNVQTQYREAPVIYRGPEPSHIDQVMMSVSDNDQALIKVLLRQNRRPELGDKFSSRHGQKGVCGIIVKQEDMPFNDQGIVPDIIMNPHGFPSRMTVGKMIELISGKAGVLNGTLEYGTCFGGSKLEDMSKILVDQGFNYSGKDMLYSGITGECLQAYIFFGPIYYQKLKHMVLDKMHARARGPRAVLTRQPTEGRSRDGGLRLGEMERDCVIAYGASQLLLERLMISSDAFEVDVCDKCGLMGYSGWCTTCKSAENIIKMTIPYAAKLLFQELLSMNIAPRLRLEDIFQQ

[5] = biological target: T3, Pol III subunit C160 (within purified Pol III) (S. cerevisiae (endogenous in strain …, UniProt P04051 1-1460)); assay: cryo-EM structure; Pol III-DNA (0.4 uM, mismatched transcription bubble) mixed with 0.6 uM IN1, 30 min at 20 °C in 10 mM Hepes pH 7.5, 150 mM NaCl, 5 mM MgCl2, 5 mM DTT; 8 mM CHAPSO on the grid (map D); conditions: both partners purified
T3 construct: RNA polymerase III largest subunit C160, S. cerevisiae; Subunit of m2, written alone for the pairs that touch in the structures; source: endogenous, S. cerevisiae strain SC1613, purified as part of Pol III (IgG Sepharose, TEV elution, Mono-Q)
T3 sequence (looked up): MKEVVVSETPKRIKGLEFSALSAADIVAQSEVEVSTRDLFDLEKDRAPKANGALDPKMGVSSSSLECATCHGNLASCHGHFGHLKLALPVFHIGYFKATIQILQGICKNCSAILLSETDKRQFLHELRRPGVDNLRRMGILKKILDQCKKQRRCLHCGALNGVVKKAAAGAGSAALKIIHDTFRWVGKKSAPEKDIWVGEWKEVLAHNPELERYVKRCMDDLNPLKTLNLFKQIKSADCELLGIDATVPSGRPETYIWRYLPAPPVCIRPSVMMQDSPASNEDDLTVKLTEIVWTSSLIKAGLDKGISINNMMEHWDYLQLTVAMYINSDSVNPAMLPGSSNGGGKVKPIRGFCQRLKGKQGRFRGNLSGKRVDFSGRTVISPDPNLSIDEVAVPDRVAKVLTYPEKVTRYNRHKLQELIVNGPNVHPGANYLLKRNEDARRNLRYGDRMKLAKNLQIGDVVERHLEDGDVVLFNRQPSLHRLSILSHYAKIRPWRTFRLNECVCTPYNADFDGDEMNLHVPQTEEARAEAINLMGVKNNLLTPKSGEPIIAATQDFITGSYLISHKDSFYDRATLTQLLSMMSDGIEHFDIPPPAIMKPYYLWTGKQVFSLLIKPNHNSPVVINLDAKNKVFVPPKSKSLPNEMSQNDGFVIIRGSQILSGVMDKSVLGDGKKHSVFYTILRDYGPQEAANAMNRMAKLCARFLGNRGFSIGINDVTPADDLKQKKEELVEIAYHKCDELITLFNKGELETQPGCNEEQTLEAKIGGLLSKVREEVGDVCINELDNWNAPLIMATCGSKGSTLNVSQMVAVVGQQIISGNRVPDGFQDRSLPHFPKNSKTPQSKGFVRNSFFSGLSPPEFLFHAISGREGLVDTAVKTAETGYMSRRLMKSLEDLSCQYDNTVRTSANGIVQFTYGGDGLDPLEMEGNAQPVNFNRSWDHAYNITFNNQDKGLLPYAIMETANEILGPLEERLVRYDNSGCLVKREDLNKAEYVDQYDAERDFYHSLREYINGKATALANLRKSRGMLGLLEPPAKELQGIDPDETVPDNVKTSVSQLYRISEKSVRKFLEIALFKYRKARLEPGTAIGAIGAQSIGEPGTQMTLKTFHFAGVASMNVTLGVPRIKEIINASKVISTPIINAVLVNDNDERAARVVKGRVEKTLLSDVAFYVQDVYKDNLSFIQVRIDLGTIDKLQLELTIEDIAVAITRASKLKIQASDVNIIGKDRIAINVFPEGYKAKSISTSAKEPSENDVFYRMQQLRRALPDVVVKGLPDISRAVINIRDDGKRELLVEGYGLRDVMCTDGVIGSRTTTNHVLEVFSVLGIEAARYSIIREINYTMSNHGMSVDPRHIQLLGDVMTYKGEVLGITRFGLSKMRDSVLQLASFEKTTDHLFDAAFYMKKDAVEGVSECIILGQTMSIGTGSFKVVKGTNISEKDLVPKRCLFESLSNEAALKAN

[6] = biological target: T3, Pol III subunit C160 (within purified …); assay: cryo-EM structure; Pol III and IN1 both at 0.5 uM in 20 mM HEPES-NaOH pH 7.5, 170 mM NaCl, 2 mM DTT, 30 min at 4 °C; crosslinked with 0.06% glutaraldehyde; no nucleic acids (maps A-C); conditions: both partners purified

## Ty1 integrase (IN1), recombinant (from UniProt Q12414 583-1217) (enzyme)
[1]
  stoichiometry N: 1

B1: Pol III subunit C11 (within purified Pol III) (natural protein, UniProt Q04307 1-110, looked up)
chain: MLSFCPSCNNMLLITSGDSGVYTLACRSCPYEFPIEGIEIYDRKKLPRKEVDDVLGGGWDNVDQTKTQCPNYDTCGGESAYFFQLQIRSADEPMTTFYKCVNCGHRWKEN
notes: RNA polymerase III subunit C11, S. cerevisiae; two Zn-ribbons (residues 1-36 and 64-110) joined by a linker (37-63); Subunit of m2, written alone for the pairs that touch in the structures; source: endogenous, S. cerevisiae strain SC1613, purified as part of Pol III (IgG Sepharose, TEV elution, Mono-Q)
[2]
  binding result: binds
[3]
  binding result: binds
[4]
  binding result: binds
[5]
  binding result: binds

## B2
[6]
  binding result: binds
